According to publication PMC10397247:

Columns and labels:
Assay in all cases: two-hybrid library CCNG1;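 further: natural log of median RNA to DNA barcode read ratio; higher means stronger binding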
P1A-bS = biological target: T1, P1A-bS
T1 chain: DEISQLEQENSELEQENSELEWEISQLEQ

4H492-bN = biological target: T2, 4H492-bN
T2 chain: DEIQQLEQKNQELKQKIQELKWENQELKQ

4H741-bN = biological target: T3, 4H741-bN
T3 chain: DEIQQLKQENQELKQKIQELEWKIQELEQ

4H796-bA = biological target: T4, 4H796-bA
T4 chain: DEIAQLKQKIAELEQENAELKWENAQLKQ

4H346-bH = biological target: T5, 4H346-bH
T5 chain: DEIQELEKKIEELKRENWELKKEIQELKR

4H968-bH = biological target: T6, 4H968-bH
T6 chain: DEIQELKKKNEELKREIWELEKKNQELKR

4H170-bH = biological target: T7, 4H170-bH
T7 chain: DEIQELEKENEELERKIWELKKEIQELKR

4H953-bH = biological target: T8, 4H953-bH
T8 chain: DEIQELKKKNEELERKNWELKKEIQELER

4H4073-bH = biological target: T9, 4H4073-bH
T9 chain: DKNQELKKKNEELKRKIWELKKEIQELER

4H2673-bH = biological target: T10, 4H2673-bH
T10 chain: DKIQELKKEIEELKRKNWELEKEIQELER

4H1831-bH = biological target: T11, 4H1831-bH
T11 chain: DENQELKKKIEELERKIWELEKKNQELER

4H3112-bH = biological target: T12, 4H3112-bH
T12 chain: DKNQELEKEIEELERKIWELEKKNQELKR

4H683-bH = biological target: T13, 4H683-bH
T13 chain: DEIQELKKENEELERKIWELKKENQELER

4H2586-bH = biological target: T14, 4H2586-bH
T14 chain: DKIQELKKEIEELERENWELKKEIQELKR

4H754-bH = biological target: T15, 4H754-bH
T15 chain: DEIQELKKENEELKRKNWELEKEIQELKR

4H855-bH = biological target: T16, 4H855-bH
T16 chain: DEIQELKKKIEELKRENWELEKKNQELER

4H2702-bH = biological target: T17, 4H2702-bH
T17 chain: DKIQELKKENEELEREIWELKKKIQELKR

4H918-bH = biological target: T18, 4H918-bH
T18 chain: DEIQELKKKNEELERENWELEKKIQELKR

4H3427-bH = biological target: T19, 4H3427-bH
T19 chain: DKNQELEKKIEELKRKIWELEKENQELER

4H780-bH = biological target: T20, 4H780-bH
T20 chain: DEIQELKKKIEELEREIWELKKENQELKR

4H3926-bH = biological target: T21, 4H3926-bH
T21 chain: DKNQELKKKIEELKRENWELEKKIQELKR

4H797-bH = biological target: T22, 4H797-bH
T22 chain: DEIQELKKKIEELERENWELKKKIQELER

4H3010-bH = biological target: T23, 4H3010-bH
T23 chain: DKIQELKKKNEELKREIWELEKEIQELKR

4H2627-bH = biological target: T24, 4H2627-bH
T24 chain: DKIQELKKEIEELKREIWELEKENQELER

4H457-bH = biological target: T25, 4H457-bH
T25 chain: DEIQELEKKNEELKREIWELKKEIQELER

4H575-bH = biological target: T26, 4H575-bH
T26 chain: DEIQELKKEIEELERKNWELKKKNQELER

B1: 4H492-bN (peptide)
chain: DEIQQLEQKNQELKQKIQELKWENQELKQ
An interaction score (P1A-bS) of -1.07, an interaction score (4H492-bN) of -0.118 and an interaction score (4H741-bN) of -0.326 were found for B1 in this work. It also gave an interaction score (4H796-bA) of 0.0979.

B2: 4H170-bH (peptide)
chain: DEIQELEKENEELERKIWELKKEIQELKR
An interaction score (4H346-bH) of -0.205, an interaction score (4H968-bH) of 1.47 and an interaction score (4H170-bH) of 0.761 were found for B2 in this work. It also gave an interaction score (4H953-bH) of 0.0231, an interaction score (4H4073-bH) of 1.14 and an interaction score (4H2673-bH) of -0.0221. The interaction score (4H1831-bH) was -0.0127, the interaction score (4H3112-bH) was 0.343 and the interaction score (4H683-bH) was -0.173. It also gave an interaction score (4H2586-bH) of -1.02, an interaction score (4H754-bH) of 1.02 and an interaction score (4H855-bH) of -0.762. It also gave an interaction score (4H2702-bH) of 1.84, an interaction score (4H918-bH) of 0.183 and an interaction score (4H3427-bH) of 0.596. It also gave an interaction score (4H780-bH) of -0.492, an interaction score (4H3926-bH) of 0.549 and an interaction score (4H797-bH) of 0.264. The interaction score (4H3010-bH) was 2.38, the interaction score (4H2627-bH) was 0.774 and the interaction score (4H457-bH) was 1.82. It also gave an interaction score (4H575-bH) of -1.59.
